Values of other authors in patent US20170173060A1, “ACTIVATION OF THE ENDOGENOUS ILEAL BRAKE HORMONE PATHWAY FOR ORGAN REGENERATION AND RELATED COMPOSITIONS, METHODS OF TREATMENT, DIAGNOSTICS, AND REGULATORY SYSTEMS” (VOLANT HOLDINGS GMBH, priority 2014, published 2017).

B1: Betacellulin (protein, UniProt P35070 32-111, looked up)
Betacellulin: DGNSTRSPETNGLLCGDPEENCAATTTQSKRKGHFSRCPKQYKHYCIKGRCRFVVAEQTPSCVCDEGYIGARCERVDLFY
modifications: Betacellulin
notes: member of the epidermal growth factor family
B2: EGF (protein, UniProt P01133 23-1207, looked up)
Pro-epidermal growth factor: PQHWSCPEGTLAGNGNSTCVGPAPFLIFSHGNSIFRIDTEGTNYEQLVVDAGVSVIMDFHYNEKRIYWVDLERQLLQRVFLNGSRQERVCNIEKNVSGMAINWINEEVIWSNQQEGIITVTDMKGNNSHILLSALKYPANVAVDPVERFIFWSSEVAGSLYRADLDGVGVKALLETSEKITAVSLDVLDKRLFWIQYNREGSNSLICSCDYDGGSVHISKHPTQHNLFAMSLFGDRIFYSTWKMKTIWIANKHTGKDMVRINLHSSFVPLGELKVVHPLAQPKAEDDTWEPEQKLCKLRKGNCSSTVCGQDLQSHLCMCAEGYALSRDRKYCEDVNECAFWNHGCTLGCKNTPGSYYCTCPVGFVLLPDGKRCHQLVSCPRNVSECSHDCVLTSEGPLCFCPEGSVLERDGKTCSGCSSPDNGGCSQLCVPLSPVSWECDCFPGYDLQLDEKSCAASGPQPFLLFANSQDIRHMHFDGTDYGTLLSQQMGMVYALDHDPVENKIYFAHTALKWIERANMDGSQRERLIEEGVDVPEGLAVDWIGRRFYWTDRGKSLIGRSDLNGKRSKIITKENISQPRGIAVHPMAKRLFWTDTGINPRIESSSLQGLGRLVIASSDLIWPSGITIDFLTDKLYWCDAKQSVIEMANLDGSKRRRLTQNDVGHPFAVAVFEDYVWFSDWAMPSVMRVNKRTGKDRVRLQGSMLKPSSLVVVHPLAKPGADPCLYQNGGCEHICKKRLGTAWCSCREGFMKASDGKTCLALDGHQLLAGGEVDLKNQVTPLDILSKTRVSEDNITESQHMLVAEIMVSDQDDCAPVGCSMYARCISEGEDATCQCLKGFAGDGKLCSDIDECEMGVPVCPPASSKCINTEGGYVCRCSEGYQGDGIHCLDIDECQLGEHSCGENASCTNTEGGYTCMCAGRLSEPGLICPDSTPPPHLREDDHHYSVRNSDSECPLSHDGYCLHDGVCMYIEALDKYACNCVVGYIGERCQYRDLKWWELRHAGHGQQQKVIVVAVCVVVLVMLLLLSLWGAHYYRTQKLLSKNPKNPYEESSRDVRSRRPADTEDGMSSCPQPWFVVIKEHQDLKNGGQPVAGEDGQAADGSMQPTSWRQEPQLCGMGTEQGCWIPVSSDKGSCPQVMERSFHMPSYGTQTLEGGVEKPHSLLSANPLWQQRALDPPHQMELTQ
modifications: Pro-epidermal growth factor

Legend:
MIN-6 cells = conditions: immunoprecipitation and western blotting
[1] = test system: severely streptozotocin-diabetic rats; conditions: rat, in vivo

Molecule | phosphorylation of EGF receptors (ErbBs) (MIN-6 cells) | glucose tolerance [1]
B1 | induced phosphorylation of only ErbB-1 and ErbB-2 | –
B2 | – | neither gastrin nor EGF alone improved glucose tolerance
